Source: patent US20100150950A1, “HUMAN ANTIBODIES THAT BIND CD70 AND USES THEREOF” (Medarex, Inc., priority 2006, published 2010)

Legend:
SU-DHL-6 cells = test: ADCC fluorescence cytotoxicity assay, SU-DHL-6; type: cell-based, human; details: target to effector ratio 1:50
Experimental: In this example, a defucosylated and non-defucosylated anti-CD70 monoclonal antibody was tested for the ability to kill CD70+cells in the presence of effector cells via antibody dependent cellular cytotoxicity (ADCC) in a fluorescence cytotoxicity assay
Human Anti-CD70 monoclonal antibody 2H5 was defucosylated as described above. Human effector cells were prepared from whole blood as follows. Human peripheral blood mononuclear cells were purified from heparinized whole blood by standard Ficoll-paque separation. The cells were resuspended in RPMI1640 media containing 10% FBS (culture media) and 200 U/ml of human IL-2 and incubated overnight at 37° C. The following day, the cells were collected and washed once in culture media and resuspended at 2×10^7 cells/ml. […]
The CD70+ cell lines ARH-77 (human B lymphoblast leukemia; ATCC Accession No. CRL-1621), MEC-1 (human chronic B cell leukemia; DSMZ Accession No. ACC 497), SU-DHL-6 (human B cell lymphoma, DSMZ Accession No. Acc572), IM-9 (human B lymphoblast; ATCC Accession No. CCL-159) and HuT 78 (human cutaneous lymphocyte lymphoma; ATCC Accession No. TIB-161), were tested for antibody specific ADCC to the defucosylated and non-defucosylated human anti-CD70 monoclonal antibody 2H5 using the Delfia fluorescence emission analysis as follows. […]

[1] = system: CD70 costimulation of human CD3+ T cells; test: CD70 co-stimulated human T cell proliferation and IFN-γ secretion; type: cell-based; details: CHO-S/mCD32/CD70 cells + anti-hCD3, 3 days
Experimental: In this experiment, the HuMAb anti-CD70 antibody 2H5 was tested for inhibition of inflammatory responses. CHO-S cells stably transfected with mouse CD32 (CHO-S/mCD32 cells) were transiently transfected with a full length human CD70 construct (CHO-S/mCD32/CD70 cells). Surface expression was confirmed by flow cytometry using 2A5 and PE conjugated anti-human IgG secondary Ab (data not shown). RosetteSep® Human T Cell Enrichment Kit (Cat# 15061; StemCell Technologies Inc) purified human peripheral blood CD3^+ T cells were stimulated in vitro at 1×10^6/well with 1×10^5 CHO-S/mCD32 or CHO-S/mCD32/CD70 cells/well, 1μg/ml anti-hCD3 (clone OKT3; BD Bioscience) and serial dilutions of either the HuMAb 2H5 or non-fucosylated 2H5 (2H5 NF) in triplicate wells of a 96 well plate. After 3 days supernatant aliquots were collected and interferon-gamma (INF-γ) secretion was measured by a quantitative ELISA kit (BD Biosciences). The plates were pulsed with 1 μCi/ml of ^3H-thymidine, incubated for 8 hours, cells were harvested and ^3H-thymidine incorporation was read on a Trilux® 1450 Microbeta Counter (Wallac, Inc.). An IgG1 isotype control antibody was used as a negative control. […] Data also show 2H5 inhibition is specific to CD70 costimulation as 2H5 had no effect on anti-CD3^+ CHO-S/mCD32 mediated proliferation. […]

activated human B cells = test: Binding to and ADCC of activated human B cells (51Cr); type: cell-based
Experimental: In this study, a HuMAb anti-CD70 antibody and the nonfucosylated form were tested for their ability to mediate ADCC effects on human B cells. Frozen human spleen cells were thawed and B cells were negatively purified by magnetic beads. Purified B cells were cultured at 2×10^6/ml in RPMI+10% FBS supplemented with NEAA, sodium pyruvate, β-ME and penicillin/streptomycin. B cells were activated by 10 μg/ml of LPS and 5 μg/ml anti-CD40 for 3 days. The cells were harvested, washed and an aliquot was stained with biotin conjugated nonfucosylated 2H5 (2H5 NF-bio)+streptavidin-APC. Human peripheral blood mononuclear effector cells were purified from heparinized whole blood by standard Ficoll-Paque separation and cultured overnight in of 50 U/ml IL-2. The activated B cells were labeled with 100 μCi of Na2 ^51CrO4 (Perkin Elmer, Wellesley, Mass.) per 1×10^6 cells for 1 hour. Effector cells were added to labeled target cells at a ratio of […] in the presence of serial dilutions of 2H5 and 2H5 NF (non-fucosylated). In addition, the test articles were assayed at 10 μg/ml in the presence of 20 μg/ml murine anti-CD 16 antibody 3G8 or mouse isotype control antibody. Following […] for 4 hours at 37° C., cells were centrifuged and the supernate was read on the Cobra II auto-gamma counter (Perkin Elmer) with a reading window of 240-400 KeV. The percent specific lysis was calculated as: (experimental release−spontaneous release)/(maximal release−spontaneous release)×100 where: (i) target cells with no effector cells and no antibody control for spontaneous release and (ii) target and effector cells in presence of 3% Lysol detergent control for maximal release. Percent specific lysis was plotted against antibody concentration and the data was analyzed by non-linear regression, sigmoidal dose response (variable slope) using GraphPad Prism™ 3.0 software (San Diego, Calif.).

B1: 2H5 NF: 2H5 HuMAb lacking fucosyl residues, expressed in CHO cell line Ms704-PF (antibody, V domains shown)
VH: QVQLVESGGGVVQPGRSLRLSCAASGFTFSSYIMHWVRQAPGKGLEWVAVISYDGRNKYYADSVKGRFTISRDNSKNTLYLQMNSLRAEDTAVYYCARDTDGYDFDYWGQGTLVTVSS
VL: EIVLTQSPATLSLSPGERATLSCRASQSVSSYLAWYQQKPGQAPRLLIYDASNRATGIPARFSGSGSGTDFTLTISSLEPEDFAVYYCQQRTNWPLTFGGGTKVEIK
SU-DHL-6 cells
  ADCC, % specific lysis of SU-DHL-6: increased percentage of specific lysis
[1]
  CD70 co-stimulated INF-γ secretion: completely inhibited
  CD70 co-stimulated proliferation: completely inhibited
Activated human B cells; ADCC of activated human B cells
  potency relative to 2H5: approximately 10 fold
Activated human B cells; biotin conjugated 2H5 NF + streptavidin-APC, FACS
  activated B cells bound: ~60%
Activated human B cells; effector to target 1:100 as printed, 4 hours
  lysis of activated human B cells (ADCC): induced lysis
